Assay results from article PMC2859121 (Cell host & microbe, 2010).
* marks the point of attachment. Cam = NC(=O)C*

Legend:
cross-linking = biological target: the molecule itself; assay: cross-linking
[1] = biological target: the molecule itself; assay: SDS-PAGE under reducing and non-reducing conditions

Row | Protein | stoichiometry N (cross-linking) | stoichiometry N [1] | further results
1 | tetherin(80–147), reduced with DTT and cysteines blocked with iodoacetamide (domain or fragment, human, UniProt Q10589 80-147, looked up) GFQDVEAQAATC(Cam)NHTVMALMASLDAEKAQGQKKVEELEGEITTLNHKLQDASAEVERLRRENQVLSVR | 2 |  | 
2 | tetherin(80–147) (domain or fragment, human, UniProt Q10589 80-147, looked up) GFQDVEAQAATCNHTVMALMASLDAEKAQGQKKVEELEGEITTLNHKLQDASAEVERLRRENQVLSVR |  | 2 | 
3 | tetherin(47–159) (domain or fragment, human, UniProt Q10589 47-159, looked up) KANSEACRDGLRAVMECRNVTHLLQQELTEAQKGFQDVEAQAATCNHTVMALMASLDAEKAQGQKKVEELEGEITTLNHKLQDASAEVERLRRENQVLSVRIADKKYYPSSQD |  | 2 | 
4 | tetherin(47–159) set 3 mutant (domain or fragment, human, UniProt Q10589 47-159, looked up) AAGSAACSAGLSAVMECRNVTHLLQQELTEAQKGFQDVEAQAATCNHTVMALMASLDAEKAQGQKKVEELEGEITTLNHKLQDASAEVERLRRENQVLSVRIADKKYYPSSQD |  | 2 | 
5 | tetherin(47–159), reduced with DTT and cysteines blocked with iodoacetamide (domain or fragment, human, UniProt Q10589 47-159, looked up, cysteines blocked with iodoacetamide after reduction with DTT) KANSEACRDGLRAVMECRNVTHLLQQELTEAQKGFQDVEAQAATCNHTVMALMASLDAEKAQGQKKVEELEGEITTLNHKLQDASAEVERLRRENQVLSVRIADKKYYPSSQD | 2 |  | 
6 | tetherin(47–159)_set2 (domain or fragment, human, UniProt Q10589 47-159, looked up) KANSEACRDGLRAVMECRNVTHLLQQELTEAQKGFQDVEAQAATCNHTVMALMASLDAEKAQGQKKVEELEGEITTLNHKKQDYSAEEERERRENQVLSVRIADKKYYPSSQD |  |  | binding result [1]: binds
